Source: publication PMC11143371 (Nature Communications, 2024)

Target: T1, RV3 preF OnlyEcto (Human respirovirus 3 (HPIV3), strain …, stabilised)
T1 construct: also called RV3 preF lead candidate; source: Expi293F, transfected, purified (Capto Q Impress, SEC)
Assay: BLI; kinetic Octet; […] (0-900 s), […] (900-1800 s)
Settings: both partners purified

B1: single-domain antibody (sdAb) 4C06 (VHH)
VHH: EVQLVESGGGLVQPGGSLRLSCSASGSLSTIKALGWYRRAPGRERELVASITSAGETNYADSAKGRFTVSTDNAKNTVDLRMNSLKPEDTAVYYCYAESFVLNIYWGQGTQVTVSS
notes: also called VHH 4C06
  binding result: binds
